Results: patent US20240376455

Tests used:
Assay in all cases: cleavage_in_vitro
LPG10145 (undetermined) = system: T1, LPG10145 (undetermined); details: PAM NNGG; 37C 120 min
T1 sequence: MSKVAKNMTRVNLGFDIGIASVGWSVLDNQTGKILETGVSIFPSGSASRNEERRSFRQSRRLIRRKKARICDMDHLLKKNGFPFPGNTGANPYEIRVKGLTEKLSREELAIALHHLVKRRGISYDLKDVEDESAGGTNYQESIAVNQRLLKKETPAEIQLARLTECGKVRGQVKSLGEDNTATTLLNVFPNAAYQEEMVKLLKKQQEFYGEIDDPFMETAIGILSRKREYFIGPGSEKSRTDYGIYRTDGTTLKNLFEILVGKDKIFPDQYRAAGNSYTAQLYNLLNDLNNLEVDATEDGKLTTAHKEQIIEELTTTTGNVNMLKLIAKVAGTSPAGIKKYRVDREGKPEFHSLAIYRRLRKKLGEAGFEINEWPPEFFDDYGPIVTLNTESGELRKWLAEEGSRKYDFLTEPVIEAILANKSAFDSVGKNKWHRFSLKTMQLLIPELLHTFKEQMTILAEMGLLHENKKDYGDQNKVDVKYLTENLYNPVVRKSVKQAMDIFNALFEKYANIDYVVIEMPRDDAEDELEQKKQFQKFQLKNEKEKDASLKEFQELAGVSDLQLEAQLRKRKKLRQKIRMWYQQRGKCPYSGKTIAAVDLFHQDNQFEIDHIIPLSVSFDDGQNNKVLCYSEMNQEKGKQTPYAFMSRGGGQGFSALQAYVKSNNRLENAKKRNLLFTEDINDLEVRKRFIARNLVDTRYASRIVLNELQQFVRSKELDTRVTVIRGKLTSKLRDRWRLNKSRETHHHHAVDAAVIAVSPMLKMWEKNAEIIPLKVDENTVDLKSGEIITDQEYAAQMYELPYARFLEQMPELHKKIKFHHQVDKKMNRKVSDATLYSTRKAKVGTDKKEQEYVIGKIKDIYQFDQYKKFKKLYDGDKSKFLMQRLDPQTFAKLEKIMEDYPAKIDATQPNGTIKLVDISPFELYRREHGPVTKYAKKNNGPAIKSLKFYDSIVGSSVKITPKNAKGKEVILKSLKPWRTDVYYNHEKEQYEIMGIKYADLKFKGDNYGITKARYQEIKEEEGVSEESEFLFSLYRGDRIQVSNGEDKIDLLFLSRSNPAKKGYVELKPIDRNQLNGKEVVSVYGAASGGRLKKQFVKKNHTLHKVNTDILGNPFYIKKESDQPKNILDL

LPG10150 (undetermined) = system: T2, LPG10150 (undetermined); details: PAM SEQ ID 81
T2 sequence: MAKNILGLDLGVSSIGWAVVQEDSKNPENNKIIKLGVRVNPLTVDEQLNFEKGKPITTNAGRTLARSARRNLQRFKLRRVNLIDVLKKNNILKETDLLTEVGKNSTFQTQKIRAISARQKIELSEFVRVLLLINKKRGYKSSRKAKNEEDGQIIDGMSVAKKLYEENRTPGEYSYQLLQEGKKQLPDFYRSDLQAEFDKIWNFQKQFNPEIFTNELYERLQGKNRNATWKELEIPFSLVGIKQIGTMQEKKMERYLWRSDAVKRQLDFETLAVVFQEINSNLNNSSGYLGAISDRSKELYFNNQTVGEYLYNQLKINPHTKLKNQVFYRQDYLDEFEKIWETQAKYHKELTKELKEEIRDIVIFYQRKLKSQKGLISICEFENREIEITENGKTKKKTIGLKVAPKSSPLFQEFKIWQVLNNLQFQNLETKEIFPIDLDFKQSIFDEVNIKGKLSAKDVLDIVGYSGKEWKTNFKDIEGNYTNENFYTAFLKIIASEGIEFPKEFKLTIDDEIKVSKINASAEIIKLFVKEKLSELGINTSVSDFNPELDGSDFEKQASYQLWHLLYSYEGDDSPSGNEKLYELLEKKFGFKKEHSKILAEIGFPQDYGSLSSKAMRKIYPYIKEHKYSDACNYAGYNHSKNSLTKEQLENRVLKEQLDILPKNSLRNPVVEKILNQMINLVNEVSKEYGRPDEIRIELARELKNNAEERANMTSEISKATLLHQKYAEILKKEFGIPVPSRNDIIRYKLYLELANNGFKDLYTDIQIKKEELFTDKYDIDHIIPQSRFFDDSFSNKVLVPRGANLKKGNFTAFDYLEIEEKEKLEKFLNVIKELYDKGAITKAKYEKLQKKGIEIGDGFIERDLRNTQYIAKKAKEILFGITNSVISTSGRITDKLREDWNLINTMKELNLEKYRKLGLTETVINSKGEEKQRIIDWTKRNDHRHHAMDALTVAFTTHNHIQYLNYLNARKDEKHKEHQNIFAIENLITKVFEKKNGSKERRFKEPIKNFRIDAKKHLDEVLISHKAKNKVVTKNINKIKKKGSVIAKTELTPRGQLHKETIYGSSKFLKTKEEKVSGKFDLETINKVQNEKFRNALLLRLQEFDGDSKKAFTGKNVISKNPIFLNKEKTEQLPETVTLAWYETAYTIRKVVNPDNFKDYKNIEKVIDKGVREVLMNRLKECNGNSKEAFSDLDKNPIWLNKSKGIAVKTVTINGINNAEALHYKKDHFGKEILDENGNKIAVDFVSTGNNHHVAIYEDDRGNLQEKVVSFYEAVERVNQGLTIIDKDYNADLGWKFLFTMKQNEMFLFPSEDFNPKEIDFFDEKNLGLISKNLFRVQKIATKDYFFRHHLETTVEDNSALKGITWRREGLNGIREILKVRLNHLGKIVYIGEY

[1] = system: T3, LPG10139 (Bacillus megaterium); details: PAM NNNNC
T3 sequence: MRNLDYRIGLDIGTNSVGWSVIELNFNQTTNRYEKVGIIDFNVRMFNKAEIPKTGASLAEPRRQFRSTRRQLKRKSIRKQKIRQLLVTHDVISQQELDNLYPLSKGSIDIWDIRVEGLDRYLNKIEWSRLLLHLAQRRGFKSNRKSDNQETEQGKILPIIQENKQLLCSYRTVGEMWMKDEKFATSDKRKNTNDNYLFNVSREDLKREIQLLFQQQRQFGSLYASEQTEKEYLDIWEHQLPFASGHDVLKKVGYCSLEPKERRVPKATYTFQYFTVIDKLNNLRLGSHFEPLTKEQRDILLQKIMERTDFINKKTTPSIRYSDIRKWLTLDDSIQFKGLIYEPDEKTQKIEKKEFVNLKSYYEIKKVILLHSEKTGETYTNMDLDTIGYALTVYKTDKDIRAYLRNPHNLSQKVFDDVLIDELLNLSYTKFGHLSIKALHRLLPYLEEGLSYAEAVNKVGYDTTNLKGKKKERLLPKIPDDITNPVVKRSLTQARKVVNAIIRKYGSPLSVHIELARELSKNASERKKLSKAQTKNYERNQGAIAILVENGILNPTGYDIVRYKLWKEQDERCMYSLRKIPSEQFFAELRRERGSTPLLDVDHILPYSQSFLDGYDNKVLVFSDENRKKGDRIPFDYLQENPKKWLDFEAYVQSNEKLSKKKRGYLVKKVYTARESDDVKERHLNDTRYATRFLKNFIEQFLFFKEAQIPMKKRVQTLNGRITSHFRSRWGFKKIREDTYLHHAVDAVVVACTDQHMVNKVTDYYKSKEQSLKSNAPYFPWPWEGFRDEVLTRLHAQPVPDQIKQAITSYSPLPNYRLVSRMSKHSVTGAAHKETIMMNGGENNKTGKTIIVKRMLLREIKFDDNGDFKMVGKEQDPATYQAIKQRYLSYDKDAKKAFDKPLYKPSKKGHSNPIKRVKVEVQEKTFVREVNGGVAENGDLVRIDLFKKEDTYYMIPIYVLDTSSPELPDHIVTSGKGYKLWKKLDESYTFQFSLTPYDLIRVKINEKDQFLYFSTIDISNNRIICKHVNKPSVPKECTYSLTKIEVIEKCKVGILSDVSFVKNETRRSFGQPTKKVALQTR

Sequence | activity (% target strand cleaved) (LPG10145 (undetermined)) | activity (% target strand cleaved) (LPG10150 (undetermined)) | activity (% target strand cleaved) [1]
GUUAUUGUACUCUCAAGGAAUCAGAAAGACUGAUUCCUUGAGAAUCUACAAUAAUAAGGCUUUAUGCCGAAAUUCCCACUCUUAACGGAGUGGGUUUU / GGACAGCAGCTTCCTATATCTCGTACACGGATTC / GAATCCGTGTACGAGATATAGGAAGCTGCTGTCC [LPG10145 sgRNA L1 ; Library 1 target ACGGATTC] | 92.9 |  | 
GUUGUGAAUUGCUUUAAAGAAAGCAAUUCACAAUAAGGAUUAUUCCGUUGUGAAAACAUCUAGCGCCUCGUCUAUCUACGGGGCAUUUU / GGACAGCAGCTTCCTATATCTCGTACAGGACCTC / GAGGTCCTGTACGAGATATAGGAAGCTGCTGTCC [LPG10150 sgRNA L1 ; Library 1 target AGGACCTC] |  | 1.4 | 
GUCAUAGUCCCAUCAUAUCCAUUGAAAGCAAUGGAUAUGAUGUUUCUAUGAUAAGGGCUCUCUAAGAGAGACCUGUGGCGUUGGGGAUCGCCUGCCCGUUUCGACGGGUGUCUCCCCAUUU / GGACAGCAGCTTCCTATATCTCGTACAGGACCTC / GAGGTCCTGTACGAGATATAGGAAGCTGCTGTCC [LPG10139 sgRNA L1 ; Library 1 target AGGACCTC] |  |  | 4.4
GUUGUGAAUUGCUUUAAAGAAAGCAAUUCACAAUAAGGAUUAUUCCGUUGUGAAAACAUCUAGCGCCUCGUCUAUCUACGGGGCAUUUU / GATATAGACGTTGTGGCTGTTGTAGTAGGACTTC / GAAGTCCTACTACAACAGCCACAACGTCTATATC [LPG10150 sgRNA L2 ; Library 2 target AGGACTTC] |  | 31.8 | 
GUUAUUGUACUCUCAAGGAAUCAGAAAGACUGAUUCCUUGAGAAUCUACAAUAAUAAGGCUUUAUGCCGAAAUUCCCACUCUUAACGGAGUGGGUUUU / GATATAGACGTTGTGGCTGTTGTAGTACGGATTC / GAATCCGTACTACAACAGCCACAACGTCTATATC [LPG10145 sgRNA L2 ; Library 2 target ACGGATTC] | 100 |  | 
GUCAUAGUCCCAUCAUAUCCAUUGAAAGCAAUGGAUAUGAUGUUUCUAUGAUAAGGGCUCUCUAAGAGAGACCUGUGGCGUUGGGGAUCGCCUGCCCGUUUCGACGGGUGUCUCCCCAUUU / GATATAGACGTTGTGGCTGTTGTAGTAGGACCTC / GAGGTCCTACTACAACAGCCACAACGTCTATATC [LPG10139 sgRNA L2 ; Library 2 target AGGACCTC] |  |  | 7.3
